From article PMC10628450

Experiments:
FcRn-His6 [1] = molecular target: FcRn-His6 (UniProt P55899); assay: BLI; pH 6; settings: bispecific antibody
[2] = molecular target: Anti-NKp46_AB_H05 (human); assay: BLI; antibodies loaded at 5 µg/ml on anti-human-Fc (AHC) or anti-human-CH1 (FAB2G) biosensors; antigen in solution (EGFR 3.125-200 nM; NKp46 and NKp30 1.6-100 nM) in kinetics buffer (PBS, 0.1% Tween-20, 1% BSA); 25°C; 1:1 binding model
[3] = molecular target: Anti-NKp46_AB_F06 (human); assay: as above
Chain of Anti-NKp46_AB_F06 (human) (heavy, as listed by the source, chain 1 of 2): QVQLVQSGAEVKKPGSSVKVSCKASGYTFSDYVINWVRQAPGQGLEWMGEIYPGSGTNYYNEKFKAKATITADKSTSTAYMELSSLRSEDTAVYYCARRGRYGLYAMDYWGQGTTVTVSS
Chain of Anti-NKp46_AB_F06 (human) (light, as listed by the source, chain 2 of 2): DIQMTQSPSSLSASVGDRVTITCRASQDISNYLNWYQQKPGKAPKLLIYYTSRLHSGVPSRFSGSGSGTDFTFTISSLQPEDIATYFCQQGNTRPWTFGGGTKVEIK

FcRn-His6 [4] = molecular target: FcRn-His6 (UniProt P55899); assay: BLI; settings: bispecific antibody

Chain of FcRn-His6 (P55899 24-297, chain 1 of 2): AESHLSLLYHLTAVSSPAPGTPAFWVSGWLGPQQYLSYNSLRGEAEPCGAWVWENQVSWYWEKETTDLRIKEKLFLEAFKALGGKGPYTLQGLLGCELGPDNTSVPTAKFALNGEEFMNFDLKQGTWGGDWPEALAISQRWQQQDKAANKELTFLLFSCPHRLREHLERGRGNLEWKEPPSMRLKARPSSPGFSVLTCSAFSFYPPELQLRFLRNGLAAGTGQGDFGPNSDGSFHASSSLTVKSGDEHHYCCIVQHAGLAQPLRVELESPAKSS
Chain of FcRn-His6 (partner, as listed by the source, chain 2 of 2): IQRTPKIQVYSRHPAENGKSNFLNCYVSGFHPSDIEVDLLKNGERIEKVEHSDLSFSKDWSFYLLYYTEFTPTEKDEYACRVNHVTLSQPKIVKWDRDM
Chain of Anti-NKp46_AB_H05 (human) (heavy, as listed by the source, chain 1 of 2): as the sequence (heavy, as listed by the source, chain 1 of 2) above
Chain of Anti-NKp46_AB_H05 (human) (light, as listed by the source, chain 2 of 2): as the sequence (light, as listed by the source, chain 2 of 2) above

In the case of Anti-NKp46_AB_F06 (from UniProt P01857), the Kd (FcRn-His6 [1]) is reported as 407 nM and the koff (FcRn-His6 [1]) is reported as 0.0576 s⁻¹.
Anti-NKp46_AB_H05 (from UniProt P01857) showed a Kd (FcRn-His6 [1]) of 399 nM and a koff (FcRn-His6 [1]) of 0.076 s⁻¹.
Work on “human EGFR ECD-His6 (from UniProt P00533 25-645) (receptor)” yielded a Kd [2] of 37.7 nM and a Kd [3] of 29.4 nM.
Substance Anti-NKp46_EF_F06 (from UniProt P01857) has a Kd (FcRn-His6 [4]) of 477 nM and a koff (FcRn-His6 [1]) of 0.0736 s⁻¹.
With Anti-NKp46_EF_H05 (from UniProt P01857) the Kd (FcRn-His6 [1]) was 392 nM and the koff (FcRn-His6 [1]) was 0.0852 s⁻¹.
